The values that follow come from article PMC5498496.

Data set [1] in a line: eptifibatide-induced mAb binding, flow cytometry. The following applies: glycan lost; control: wild-type β3 with αIIb. In general terms: In flow cytometry, cells or beads pass a laser one at a time.
Data set [2] in a line: surface expression by mAbs 10E5, AP2, AP3, flow cytometry. To be noted: glycan lost; control: wild-type αIIbβ3.

B1: integrin β3 subunit: β3-N559Q (protein)
parent chain: MRARPRPRPLWATVLALGALAGVGVGGPNICTTRGVSSCQQCLAVSPMCAWCSDEALPLGSPRCDLKENLLKDNCAPESIEFPVSEARVLEDRPLSDKGSGDSSQVTQVSPQRIALRLRPDDSKNFSIQVRQVEDYPVDIYYLMDLSYSMKDDLWSIQNLGTKLATQMRKLTSNLRIGFGAFVDKPVSPYMYISPPEALENPCYDMKTTCLPMFGYKHVLTLTDQVTRFNEEVKKQSVSRNRDAPEGGFDAIMQATVCDEKIGWRNDASHLLVFTTDAKTHIALDGRLAGIVQPNDGQCHVGSDNHYSASTTMDYPSLGLMTEKLSQKNINLIFAVTENVVNLYQNYSELIPGTTVGVLSMDSSNVLQLIVDAYGKIRSKVELEVRDLPEELSLSFNATCLNNEVIPGLKSCMGLKIGDTVSFSIEAKVRGCPQEKEKSFTIKPVGFKDSLIVQVTFDCDCACQAQAEPNSHRCNNGNGTFECGVCRCGPGWLGSQCECSEEDYRPSQQDECSPREGQPVCSQRGECLCGQCVCHSSDFGKITGKYCECDDFSCVRYKGEMCSGHGQCSCGDCLCDSDWTGYYCNCTTRTDTCMSSNGLLCSGRGKCECGSCVCIQPGSYGDTCEKCPTCPDACTFKKECVECKKFDRGALHDENTCNRYCRDEIESVKELKDTGKDAVNCTYKNEDDCVVRFQYYEDSSGKSILYVVEEPECPKGPDILVVLLSVMGAILLIGLAALLIWKLLITIHDRKEFAKFEEERARAKWDTANNPLYKEATSTFTNITYRGT
With B1, the structure_or_conformation result in data set [1] was “decreases”. In data set [2], the expression_or_secretion entry is listed as “no change”.
